Laboratory results published in patent publication US7390643B2, “Geranyl diphosphate synthase molecules, and nucleic acid molecules encoding same” (Washington State University Research Foundation, priority 2002, dated 2008).
“Also recorded” adds a separate entry of the source.

Tests used:
[1] = test system: recombinant GPP synthases from grand fir; experiment: Kinetic evaluation, standard prenyltransferase assay with purified recombinant His6-tagged GPP synthases; format: biochemical, Abies grandis
Protocol: Molecular weight determination and kinetic evaluation. The molecular weight of GPP synthase was determined by gel filtration chromatography on a calibrated XK 16/70 column of Superdex 200 (Amersham Biosciences) as previously described (C. Burke and R. Croteau, J. Biol. Chem. 277:3141-3149, 2002). For kinetic evaluation, the standard prenyltransferase assay was performed (C. Burke and R. Croteau, J. Biol. Chem. 277:3141-3149, 2002) but the reaction was terminated after 4 min. to ensure linearity in the rate measurements. For preparative incubations, the reaction time was extended to 8 min., and all assays contained from 0.25 to 1.0 μg of purified protein.
Kinetic characterization of the GPP synthases (SEQ ID NOS:12, 16, and 20). To compare substrate binding behavior and turnover rates of these grand fir GPP synthases (SEQ ID NOS:12, 16, and 20) to those of the Mentha synthase, kinetic constants were determined (Table 1).

[2] = test system: presumptive prenyltransferases (GPP synthases and GGPP synthase) from grand fir; experiment: Product determination and co-substrate selectivity assay ([4-14C]IPP plus allylic co-substrate, MgCl2; radio-GC of hydrolysed products); format: biochemical, Abies grandis; conditions: for product formed: radio-GC; for rate with GPP as allylic co-substrate in the production of FPP, relative to the rate with DMAPP: standard assay conditions
Source text: Protein purification and product determination. The affinity-based purification procedure for His-tagged proteins has been described previously, as has the standard purification protocol for the corresponding non-tagged proteins (C. Burke and R. Croteau, J. Biol. Chem.277:3141-3149, 2002). The partial purification procedure for the native GPP synthase from A. grandis has also been reported previously (D. Tholl et al., Arch. Biochem. Biophys. 386:233-242, 2001). Procedures for polyclonal antibody preparation were as described previously (C. C. Burke et al., Proc. Natl. Acad. Sci. USA 96:13062-13067, 1999), in this case using the SDS-PAGE purified AgGPPS3 protein (SEQ ID NO:7) as antigen. The assay procedures and methods for product analysis were similar to those previously described (C. Burke and R. Croteau, J. Biol. Chem. 277:3141-3149, 2002), except that for radio-GC a Raga (Raytest) radio-detector connected in-line to a Series 600 (Gow-Mac) chromatograph was employed with a 5% phenyl polysiloxane (ZB-5; Phenomenex) capillary column under hydrogen gas flow (70° C. for 5 min. followed by an 8° C. per min. ramp to 240° C. for 5 min).
As might be expected based on prior experience, the full-length (preprotein) versions of these enzymes (SEQ ID NOS:3, 5, 7 and 22) were not efficiently expressed in soluble form and the bulk of the protein generated was in inclusion bodies. However, the truncated versions of these enzymes with the appended C-terminal His6-tag (SEQ ID NOS:12, 16, 20 and 26) readily afforded soluble protein that was affinity purified to >90% in amounts up to 6 mg/L. To define the function of these presumptive prenyltransferases, assays were conducted with the purified proteins (SEQ ID NOS:12, 16, 20 and 26) using [4-^14C]IPP and DMAPP as co-substrates and MgCl2 as cofactor. The resulting products were enzymatically hydrolyzed to the corresponding alcohols and analyzed by radio-GC. […] His-tagged AgGPPS1 (SEQ ID NO:16) and AgGPPS3 (SEQ ID NO:20) were able to accept GPP as the allylic co-substrate (110% the rate with DMAPP under standard assay conditions) in the production of FPP, and His-tagged AgGPPS3 (SEQ ID NO:20) could also efficiently utilize FPP as allylic co-substrate in the formation of GGPP (at about 50% the rate with DMAPP as co-substrate).

[3] = [4-14C]IPP and DMAPP as co-substrates, MgCl2 as cofactor

Row | Molecule | turnover rate compared with AgGPPS3 [1] | turnover rate compared with the heterotetrameric Mentha GPP synthase [1] | allylic co-substrate utilised [2] | product formed [2, 3] | KM(DMAPP) compared with the Mentha enzyme [1] | rate with GPP as allylic co-substrate in the production of FPP, relative to the rate with DMAPP [2] [%] | rate with FPP as allylic co-substrate in the formation of GGPP, relative to the rate with DMAPP [2] | farnesyl diphosphate produced [2, 3]
1 | AgGPPS2: recombinant geranyl diphosphate synthase from Grand fir (Abies grandis), truncated, His6-tagged, SEQ ID NO:12 (protein, His6 tag; Abies Grandis) MFDFNKYMDSKAMTVNEALNKAIPLRYPQKIYESMRYSLLAGGKRVRPVLCIAACELVGGTEELAIPTACAIEMIHTMSLMHDDLPCIDNDDLRRGKPTNHKIFGEDTAVTAGNALHSYAFEHIAVSTSKTVGADRILRMVSELGRATGSEGVMGGQMVDIASEGDPSIDLQTLEWIHIHKTAMLLECSVVCGAIIGGASEIVIERARRYARCVGLLFQVVDDILDVTKSSDELGKTAGKDLISDKATYPKLMGLEKAKEFSDELLNRAKGELSCFDPVKAAPLLGLADYVAFRQNLEHHHHHH | four fold higher | three-fold lower | only DMAPP | geranyl diphosphate as the major product; also recorded: only GPP | – | – | – | –
2 | GGPPS: recombinant geranylgeranyl diphosphate synthase from grand fir, truncated, His6-tagged, SEQ ID NO:26 (protein, His6 tag; Abies Grandis) MFDFKEYLRSKAMAVNEALDRAVPLRYPERIHEAMRYSLLAGGKRVRPVLCISACELVGGTEEVAMPTACAMEMIHTMSLIHDDLPCMDNDDFRRGKPTNHKVFGEGTAILAGDALLSFAFEHIAVSTSKSVGTDRILRVVSELGRTIGSQGLVGGQVADITSEGDASVDLDTLEWIHIHKTAVLLECSVMCGAIISGASDNEIERIQRYARSVGLLFQVVDDILDVTKSSKELGKTAGKDLISDKATYPKLMGLEKAKQFASDLLIRAKEDLSCFDPMKAAPLLGLADYIAFRQNLEHHHHHH | – | – | – | predominately geranylgeranyl diphosphate as product with trace amounts of geranyl diphosphate | – | – | – | –
3 | AgGPPS1: recombinant geranyl diphosphate synthase from Grand fir (Abies grandis), truncated, His6-tagged, SEQ ID NO:16 (protein, His6 tag; Abies Grandis) MFDFKEYLHSKAISVNEALERAVPLRYPEKIHEAMRYSLLAGGKRIRPILTIAACELVGGSEELAMPTACAMEMIHTMSLIHDDLPSMDNDDLRRGKLTNHKVFGEGTAVLAGDALLSFAFEHIAVSTRKTVASHRVLRVVSELGKAIGSQGVAGGQVADITSEGDPSVGLETLEWIHIHKTAVLLECAVVSGAIIGGASENEIERTGRYARCVGLLFQVVDDILDVTRSSEELGKTAGKDLVSDKATYPKLMGLEKAKEFADELLDRAKEELSCFNPAKAAPLLGLADYIALRQNLEHHHHHH | four fold higher | – | – | geranyl diphosphate as the major product | two-fold higher | 110 | – | –
4 | AgGPPS3: recombinant geranyl diphosphate synthase from Grand fir (Abies grandis), truncated, His6-tagged, SEQ ID NO:20 (protein, His6 tag; Abies Grandis) MFDFNKYMLSKAMAVTEALDKAIPHSYPQKIHESMRYSLLAGGKRVRPVLCIAACELVGGREELAMPTACAMEMIHTMSLIHDDLPCMDNDDLRRGKPTNHKVFGQDTALLAGDALHAFAFEHIVAFTSKSVGSDGILRAVTELARATGPQGIMGGQIVDIASERDAFVDLQTLEWIHIHKTAVLFECATVCGAIIGGASGDEIERIRRFARYLGLLFQVVDDILDVTKSSEDLGKTAGKDLVSDKATYPKLMGLEKAKGFSLELLNKAKEELSCFDPMKAAPLFGLADYMALRQNLEHHHHHH | – | – | – | geranyl diphosphate as the major product | – | 110 | about 50% | about 30%
